Laboratory results published in patent publication US20260098059A1 (ENDOMET BIOSCIENCES, published 2026).
Several values for one entry are separate records, joined by “and”; a condition that tells them apart may be missing. Identical values can stand only once. Bridges are numbered along the chain shown (N, C = ends). [ ]: non-standard residue; d: D form. Cha = N[C@@H](CC1CCCCC1)C(=O)O; Chg = N[C@H](C(=O)O)C1CCCCC1; NMeA = CN[C@@H](C)C(=O)O; Abu = CC[C@H](N)C(=O)O

T1: β-catenin (UniProt P35222 134-665, limits assumed, biotinylated in the SPR and plate assays)
T1 construct: also called beta catenin; biotinylated β-catenin
T1 sequence (looked up): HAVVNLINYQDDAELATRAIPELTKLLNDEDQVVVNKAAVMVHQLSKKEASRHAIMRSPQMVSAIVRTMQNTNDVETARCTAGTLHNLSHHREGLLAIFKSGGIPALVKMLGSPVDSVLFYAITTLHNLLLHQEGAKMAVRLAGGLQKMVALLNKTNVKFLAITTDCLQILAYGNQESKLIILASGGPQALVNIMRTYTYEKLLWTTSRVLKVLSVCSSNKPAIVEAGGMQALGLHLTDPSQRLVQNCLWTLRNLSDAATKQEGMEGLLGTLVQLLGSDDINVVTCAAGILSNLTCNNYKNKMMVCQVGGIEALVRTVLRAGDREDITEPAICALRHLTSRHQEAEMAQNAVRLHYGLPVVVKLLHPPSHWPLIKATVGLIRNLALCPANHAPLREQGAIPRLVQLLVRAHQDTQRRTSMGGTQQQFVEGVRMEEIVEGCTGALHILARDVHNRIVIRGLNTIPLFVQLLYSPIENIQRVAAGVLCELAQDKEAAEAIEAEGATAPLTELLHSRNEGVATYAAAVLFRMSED

B1: SEQ ID NO: 466 (peptide)
peptide: Ac-W[NMeA]QSILDEH[Chg]QKVW-NH2
modifications: lactam 8-12; not fully specified; printed as Ac-NH-W-NMeA-QSILDE*H-Chg-QK*VW-NH2
B2: SEQ ID NO: 468 (peptide)
peptide: WPQSILDEHGQKVW
modifications: not fully specified; Ac-NH-WPQSILDE*H-Chg-QK*VW-NH2
B3: SEQ ID NO: 282/493 (peptide)
peptide: H-RKKRRQRRR[Peg2]KW[Cha]LI[Abu]AWD-OH
B4: SEQ ID NO: 246 (peptide)
peptide: XWFLIXAWD
HELM: PEPTIDE1{[O=C(CCCCCN[*:1])[*:2]].W.F.L.I.[Abu].A.W.D}$PEPTIDE1,PEPTIDE1,1:R1-9:R3$$$V2.0
SMILES: CC[C@@H]1NC(=O)[C@H]([C@@H](C)CC)NC(=O)[C@H](CC(C)C)NC(=O)[C@H](Cc2ccccc2)NC(=O)[C@H](Cc2c[nH]c3ccccc23)NC(=O)CCCCCNC(=O)C[C@@H](C(=O)O)NC(=O)[C@H](Cc2c[nH]c3ccccc23)NC(=O)[C@H](C)NC1=O
B5: SEQ ID NO: 423 (peptide)
peptide: WAQXILDEHGQRVWG
HELM: PEPTIDE1{W.[meA].Q.[Orn].I.L.D.E.H.[O=C([C@@H](N[*:1])C1CCCCC1)[*:2]].Q.R.V.W.G.[am]}$PEPTIDE1,PEPTIDE1,4:R3-8:R3$$$V2.0
SMILES: CC[C@H](C)[C@@H]1NC(=O)[C@@H](NC(=O)[C@H](CCC(N)=O)NC(=O)[C@H](C)N(C)C(=O)[C@@H](N)Cc2c[nH]c3ccccc23)CCCNC(=O)CC[C@@H](C(=O)N[C@@H](Cc2c[nH]cn2)C(=O)N[C@H](C(=O)N[C@@H](CCC(N)=O)C(=O)N[C@@H](CCCNC(=N)N)C(=O)N[C@H](C(=O)N[C@@H](Cc2c[nH]c3ccccc23)C(=O)NCC(N)=O)C(C)C)C2CCCCC2)NC(=O)[C@H](CC(=O)O)NC(=O)[C@H](CC(C)C)NC1=O
B6: SEQ ID NO: 425 (peptide)
peptide: WAQXILDEHGQRVWG
HELM: PEPTIDE1{[CCCCCCCCC(=O)[*:2]].W.[meA].Q.[Orn].I.L.D.E.H.[O=C([C@@H](N[*:1])C1CCCCC1)[*:2]].Q.R.V.W.G.[am]}$PEPTIDE1,PEPTIDE1,5:R3-9:R3$$$V2.0
SMILES: CCCCCCCCC(=O)N[C@@H](Cc1c[nH]c2ccccc12)C(=O)N(C)[C@@H](C)C(=O)N[C@@H](CCC(N)=O)C(=O)N[C@H]1CCCNC(=O)CC[C@@H](C(=O)N[C@@H](Cc2c[nH]cn2)C(=O)N[C@H](C(=O)N[C@@H](CCC(N)=O)C(=O)N[C@@H](CCCNC(=N)N)C(=O)N[C@H](C(=O)N[C@@H](Cc2c[nH]c3ccccc23)C(=O)NCC(N)=O)C(C)C)C2CCCCC2)NC(=O)[C@H](CC(=O)O)NC(=O)[C@H](CC(C)C)NC(=O)[C@H]([C@@H](C)CC)NC1=O
B7: SEQ ID NO: 417 (peptide)
peptide: WAXKILDEHGQRVWG
HELM: PEPTIDE1{W.[meA].[Aib].K.I.L.D.E.H.[O=C([C@@H](N[*:1])C1CCCCC1)[*:2]].Q.R.V.W.G.[am]}$PEPTIDE1,PEPTIDE1,4:R3-8:R3$$$V2.0
SMILES: CC[C@H](C)[C@@H]1NC(=O)[C@@H](NC(=O)C(C)(C)NC(=O)[C@H](C)N(C)C(=O)[C@@H](N)Cc2c[nH]c3ccccc23)CCCCNC(=O)CC[C@@H](C(=O)N[C@@H](Cc2c[nH]cn2)C(=O)N[C@H](C(=O)N[C@@H](CCC(N)=O)C(=O)N[C@@H](CCCNC(=N)N)C(=O)N[C@H](C(=O)N[C@@H](Cc2c[nH]c3ccccc23)C(=O)NCC(N)=O)C(C)C)C2CCCCC2)NC(=O)[C@H](CC(=O)O)NC(=O)[C@H](CC(C)C)NC1=O
B8: SEQ ID NO: 414 (peptide)
peptide: WAQKILDEHGXRVWG
HELM: PEPTIDE1{[ac].W.[meA].Q.K.I.L.D.E.H.[O=C([C@@H](N[*:1])C1CCCCC1)[*:2]].[Aib].R.V.W.G.[am]}$PEPTIDE1,PEPTIDE1,5:R3-9:R3$$$V2.0
SMILES: CC[C@H](C)[C@@H]1NC(=O)[C@@H](NC(=O)[C@H](CCC(N)=O)NC(=O)[C@H](C)N(C)C(=O)[C@H](Cc2c[nH]c3ccccc23)NC(C)=O)CCCCNC(=O)CC[C@@H](C(=O)N[C@@H](Cc2c[nH]cn2)C(=O)N[C@H](C(=O)NC(C)(C)C(=O)N[C@@H](CCCNC(=N)N)C(=O)N[C@H](C(=O)N[C@@H](Cc2c[nH]c3ccccc23)C(=O)NCC(N)=O)C(C)C)C2CCCCC2)NC(=O)[C@H](CC(=O)O)NC(=O)[C@H](CC(C)C)NC1=O
B9: SEQ ID NO: 244 (peptide)
peptide: KWFLIXAWD
HELM: PEPTIDE1{K.W.F.L.I.[Abu].A.W.D}$PEPTIDE1,PEPTIDE1,1:R3-9:R3$$$V2.0
SMILES: CC[C@@H]1NC(=O)[C@H]([C@@H](C)CC)NC(=O)[C@H](CC(C)C)NC(=O)[C@H](Cc2ccccc2)NC(=O)[C@H](Cc2c[nH]c3ccccc23)NC(=O)[C@@H](N)CCCCNC(=O)C[C@@H](C(=O)O)NC(=O)[C@H](Cc2c[nH]c3ccccc23)NC(=O)[C@H](C)NC1=O
B10: SEQ ID NO: 245 (peptide)
peptide: XWFLICAWD
HELM: PEPTIDE1{[O=C(CCCCCN[*:1])[*:2]].W.F.L.I.C.A.W.D}$PEPTIDE1,PEPTIDE1,1:R1-9:R3$$$V2.0
SMILES: CC[C@H](C)[C@@H]1NC(=O)[C@H](CC(C)C)NC(=O)[C@H](Cc2ccccc2)NC(=O)[C@H](Cc2c[nH]c3ccccc23)NC(=O)CCCCCNC(=O)C[C@@H](C(=O)O)NC(=O)[C@H](Cc2c[nH]c3ccccc23)NC(=O)[C@H](C)NC(=O)[C@H](CS)NC1=O
B11: SEQ ID NO: 233 (peptide)
peptide: DWFLICAWK
HELM: PEPTIDE1{D.W.F.L.I.C.A.W.K}$PEPTIDE1,PEPTIDE1,1:R3-9:R3$$$V2.0
SMILES: CC[C@H](C)[C@@H]1NC(=O)[C@H](CC(C)C)NC(=O)[C@H](Cc2ccccc2)NC(=O)[C@H](Cc2c[nH]c3ccccc23)NC(=O)[C@@H](N)CC(=O)NCCCC[C@@H](C(=O)O)NC(=O)[C@H](Cc2c[nH]c3ccccc23)NC(=O)[C@H](C)NC(=O)[C@H](CS)NC1=O
B12: SEQ ID NO: 230 (peptide)
peptide: MWKLIEFWG
HELM: PEPTIDE1{M.W.K.L.I.E.F.W.G}$PEPTIDE1,PEPTIDE1,3:R3-6:R3$$$V2.0
SMILES: CC[C@H](C)[C@@H]1NC(=O)[C@H](CC(C)C)NC(=O)[C@@H](NC(=O)[C@H](Cc2c[nH]c3ccccc23)NC(=O)[C@@H](N)CCSC)CCCCNC(=O)CC[C@@H](C(=O)N[C@@H](Cc2ccccc2)C(=O)N[C@@H](Cc2c[nH]c3ccccc23)C(=O)NCC(=O)O)NC1=O
B13: SEQ ID NO: 424 (peptide)
peptide: WAQXILDEHGQRVWG
HELM: PEPTIDE1{[ac].W.[meA].Q.[Orn].I.L.D.E.H.[O=C([C@@H](N[*:1])C1CCCCC1)[*:2]].Q.R.V.W.G.[am]}$PEPTIDE1,PEPTIDE1,5:R3-9:R3$$$V2.0
SMILES: CC[C@H](C)[C@@H]1NC(=O)[C@@H](NC(=O)[C@H](CCC(N)=O)NC(=O)[C@H](C)N(C)C(=O)[C@H](Cc2c[nH]c3ccccc23)NC(C)=O)CCCNC(=O)CC[C@@H](C(=O)N[C@@H](Cc2c[nH]cn2)C(=O)N[C@H](C(=O)N[C@@H](CCC(N)=O)C(=O)N[C@@H](CCCNC(=N)N)C(=O)N[C@H](C(=O)N[C@@H](Cc2c[nH]c3ccccc23)C(=O)NCC(N)=O)C(C)C)C2CCCCC2)NC(=O)[C@H](CC(=O)O)NC(=O)[C@H](CC(C)C)NC1=O
B14: SEQ ID NO: 419 (peptide)
peptide: AWAQKILDEHGQRVWG
HELM: PEPTIDE1{[ac].[bAla].W.[meA].Q.K.I.L.D.E.H.[O=C([C@@H](N[*:1])C1CCCCC1)[*:2]].Q.R.V.W.G.[am]}$PEPTIDE1,PEPTIDE1,6:R3-10:R3$$$V2.0
SMILES: CC[C@H](C)[C@@H]1NC(=O)[C@@H](NC(=O)[C@H](CCC(N)=O)NC(=O)[C@H](C)N(C)C(=O)[C@H](Cc2c[nH]c3ccccc23)NC(=O)CCNC(C)=O)CCCCNC(=O)CC[C@@H](C(=O)N[C@@H](Cc2c[nH]cn2)C(=O)N[C@H](C(=O)N[C@@H](CCC(N)=O)C(=O)N[C@@H](CCCNC(=N)N)C(=O)N[C@H](C(=O)N[C@@H](Cc2c[nH]c3ccccc23)C(=O)NCC(N)=O)C(C)C)C2CCCCC2)NC(=O)[C@H](CC(=O)O)NC(=O)[C@H](CC(C)C)NC1=O
B15: SEQ ID NO: 238 (peptide)
peptide: Ac-LISFWG-OH

Each binder was assayed against T1, β-catenin (assay: competitive FP).
Text: Fluorescence polarization (FP) is another method used to analyze protein-ligand interactions. This methodology measures the change in fluorescence light emitted by a labelled compound free vs. conjugated to another compound in solution. Upon binding of the fluorescent molecule to a complex, polarization increases because of limited rotation of the fluorescent tracer. Competitive FP is often utilized in drug screens as it is formatted for high throughput screens in a plate format. This immunoassay is performed by introducing a non-conjugated drug to compete for binding to the labelled competitor-ligand complex, leading to a reduction in polarization. […] Exemplary methodology is described in Example 13. Data were analyzed and plotted in Microsoft Excel (Microsoft, Redmond, WA).
Varying concentrations of β-catenin inhibitor candidate (SEQ ID NO: 404) were then added in a series of serial dilutions from 10 nM to 30 uM of inhibitor in different wells of the plate. The fluorescence polarization was read by Infinite M1000 (Tecan, Baldwin Park CA) at excitation wavelength of 470 nm and measured at emission wavelength of 520 nm. […] The experiments were performed three times and data were analyzed and plotted in Microsoft Excel (Microsoft, Redmond, WA).
B1 was tested, and the Kd was ≤ 400 nM.
In the case of B2, the Kd is reported as ≤ 400 nM.
B3 was tested, and the Kd was ≤ 400 nM.
In the case of B4, the Kd is reported as ≤ 400 nM.
For B5, the Kd was > 400 nM and ≤ 1000 nM.
In the case of B6, the Kd is reported as ≤ 400 nM.
In the case of B7, the Kd is reported as ≤ 400 nM.
In the case of B8, the Kd is reported as ≤ 400 nM.
With B9 the Kd was > 400 nM and ≤ 1000 nM.
For B10, the Kd was ≤ 400 nM.
With B11 the Kd was ≤ 400 nM.
In the case of B12, the Kd is reported as ≤ 400 nM.
For B13, the Kd was ≤ 400 nM.
With B14 the Kd was ≤ 400 nM.
With B15 the Kd was > 10000 nM and ≤ 30000 nM.
